One data set concerns the target c-Src SH2. The data set is described as follows: SH2 binding enrichment of the phosphorylated peptide, bacterial display (enrichment ratio); higher = better substrate or ligand; peptides without Tyr show the background.
Another data set addresses SHP2-C SH2. The description is as above.
For another data set, the target named is Grb2 SH2 (UniProt P62993). The description is as above.
The target of another data set is Hck (UniProt P08631). Kind of data set: phosphorylation enrichment, bacterial display (enrichment ratio); higher = better substrate or ligand; peptides without Tyr show the background.
The next data set concerns the target EPHB1 (UniProt P54762). The data set is described as above.
A further data set addresses Jak2 (UniProt O60674). Described as above.
A further data set deals with Fer (mouse). Described as above.
The target in the next data set is FGFR3 (UniProt P22607). The description is as above.
The target of another data set is FGFR1 (UniProt P11362). The data set is described as above.
Chain of FGFR1 (P11362 whole entry, looked up): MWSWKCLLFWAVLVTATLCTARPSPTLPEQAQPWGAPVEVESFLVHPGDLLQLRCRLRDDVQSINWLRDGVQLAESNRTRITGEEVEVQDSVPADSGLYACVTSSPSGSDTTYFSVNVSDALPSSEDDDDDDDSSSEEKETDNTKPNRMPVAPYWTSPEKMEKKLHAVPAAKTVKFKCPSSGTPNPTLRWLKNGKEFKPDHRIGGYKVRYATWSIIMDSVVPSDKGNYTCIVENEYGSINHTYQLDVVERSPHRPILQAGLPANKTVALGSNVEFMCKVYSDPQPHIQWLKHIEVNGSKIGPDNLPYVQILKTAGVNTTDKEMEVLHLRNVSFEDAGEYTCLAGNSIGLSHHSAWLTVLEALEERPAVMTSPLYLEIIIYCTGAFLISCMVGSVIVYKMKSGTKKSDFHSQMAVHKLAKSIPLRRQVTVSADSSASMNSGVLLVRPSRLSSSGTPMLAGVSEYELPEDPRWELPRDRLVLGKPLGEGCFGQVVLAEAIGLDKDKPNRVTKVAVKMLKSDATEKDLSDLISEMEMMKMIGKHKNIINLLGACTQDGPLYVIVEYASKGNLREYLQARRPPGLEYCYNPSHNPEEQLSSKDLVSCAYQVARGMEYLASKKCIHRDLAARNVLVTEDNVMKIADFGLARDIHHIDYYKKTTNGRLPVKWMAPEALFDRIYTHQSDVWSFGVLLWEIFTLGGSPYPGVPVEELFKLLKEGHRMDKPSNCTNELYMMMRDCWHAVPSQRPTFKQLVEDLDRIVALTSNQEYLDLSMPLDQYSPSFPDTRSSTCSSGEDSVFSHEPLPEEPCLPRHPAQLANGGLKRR
The next data set deals with c-Src. The data set is described as above.
A further data set relates to c-Abl (mouse). The data set is described as above.
The target of another data set is Fes (UniProt P07332). The description is as above.
Chain of Fes (P07332 whole entry, looked up): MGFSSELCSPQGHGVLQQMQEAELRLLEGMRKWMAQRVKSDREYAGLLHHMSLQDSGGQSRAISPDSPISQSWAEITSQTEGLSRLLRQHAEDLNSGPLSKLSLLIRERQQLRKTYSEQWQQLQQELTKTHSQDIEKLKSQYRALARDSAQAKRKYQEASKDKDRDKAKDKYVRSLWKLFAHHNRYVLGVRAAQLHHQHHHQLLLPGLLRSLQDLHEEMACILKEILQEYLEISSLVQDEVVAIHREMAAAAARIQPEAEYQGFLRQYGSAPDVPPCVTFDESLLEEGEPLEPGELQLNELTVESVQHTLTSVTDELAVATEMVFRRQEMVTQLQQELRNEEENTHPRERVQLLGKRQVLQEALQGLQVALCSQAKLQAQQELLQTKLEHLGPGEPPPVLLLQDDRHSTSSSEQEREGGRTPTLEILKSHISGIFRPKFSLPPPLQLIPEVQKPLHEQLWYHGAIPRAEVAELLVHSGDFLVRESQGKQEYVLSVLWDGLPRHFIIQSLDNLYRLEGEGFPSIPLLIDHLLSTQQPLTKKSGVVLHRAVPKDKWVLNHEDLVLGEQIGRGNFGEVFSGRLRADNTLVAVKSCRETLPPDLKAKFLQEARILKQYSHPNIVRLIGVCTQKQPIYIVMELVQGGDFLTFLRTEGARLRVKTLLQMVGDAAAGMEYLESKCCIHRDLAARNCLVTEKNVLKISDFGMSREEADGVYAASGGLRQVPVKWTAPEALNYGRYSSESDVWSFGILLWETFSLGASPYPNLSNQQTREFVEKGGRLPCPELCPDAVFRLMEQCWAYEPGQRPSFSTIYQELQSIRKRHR
The target in a further data set is MERTK (UniProt Q12866). The description is as above.
Chain of MERTK (Q12866 whole entry, looked up): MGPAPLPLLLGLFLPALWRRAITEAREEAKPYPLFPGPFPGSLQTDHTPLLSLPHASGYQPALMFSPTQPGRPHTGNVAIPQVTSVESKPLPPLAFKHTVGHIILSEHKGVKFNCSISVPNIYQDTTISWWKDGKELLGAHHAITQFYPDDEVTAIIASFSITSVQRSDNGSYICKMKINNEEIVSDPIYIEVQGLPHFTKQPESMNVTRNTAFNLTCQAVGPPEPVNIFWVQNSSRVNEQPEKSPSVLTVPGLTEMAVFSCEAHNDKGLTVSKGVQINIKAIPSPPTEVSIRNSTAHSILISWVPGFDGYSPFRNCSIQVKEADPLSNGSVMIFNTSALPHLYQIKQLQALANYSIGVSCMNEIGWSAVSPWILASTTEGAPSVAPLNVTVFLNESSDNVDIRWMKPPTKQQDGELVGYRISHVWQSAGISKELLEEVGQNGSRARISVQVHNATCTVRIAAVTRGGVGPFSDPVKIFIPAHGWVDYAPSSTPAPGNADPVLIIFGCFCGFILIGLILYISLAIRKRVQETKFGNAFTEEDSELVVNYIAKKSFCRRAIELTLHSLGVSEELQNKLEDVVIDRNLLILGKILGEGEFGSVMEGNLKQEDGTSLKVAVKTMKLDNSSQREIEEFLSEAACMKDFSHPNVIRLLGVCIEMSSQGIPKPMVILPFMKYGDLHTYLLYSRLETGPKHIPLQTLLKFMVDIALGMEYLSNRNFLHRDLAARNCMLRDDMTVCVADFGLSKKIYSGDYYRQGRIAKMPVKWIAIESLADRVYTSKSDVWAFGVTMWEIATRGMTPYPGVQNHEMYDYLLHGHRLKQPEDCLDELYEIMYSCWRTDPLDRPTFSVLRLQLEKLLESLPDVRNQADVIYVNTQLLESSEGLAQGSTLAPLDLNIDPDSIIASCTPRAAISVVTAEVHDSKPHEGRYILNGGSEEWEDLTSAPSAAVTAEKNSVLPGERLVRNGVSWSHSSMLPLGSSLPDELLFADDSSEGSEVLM
A further data set deals with Fyn (UniProt P06241). The data set is described as above.
The target in another data set is EPHB2 (UniProt P29323). The description is as above.
In the next data set the test system is AncSZ. Described as above.
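Throughout, for SH2 binding enrichment of the phosphorylated peptide, bacterial display: peptide library displayed on the E. coli surface as eCPX fusions, selected cells deep-sequenced, score is each peptide's frequency after selection divided by its frequency in the input.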
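Throughout, for phosphorylation enrichment, bacterial display: 11-residue human phosphosite peptides and single-mutation variants displayed on the E. coli surface, counted by deep sequencing, each peptide's frequency after selection divided by its frequency in the unselected input library; frequency after pTyr selection over input frequency; kinase dosed for 20-30% of maximal phosphorylation in three min.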

Chain of Grb2 SH2 (P62993 whole entry, looked up): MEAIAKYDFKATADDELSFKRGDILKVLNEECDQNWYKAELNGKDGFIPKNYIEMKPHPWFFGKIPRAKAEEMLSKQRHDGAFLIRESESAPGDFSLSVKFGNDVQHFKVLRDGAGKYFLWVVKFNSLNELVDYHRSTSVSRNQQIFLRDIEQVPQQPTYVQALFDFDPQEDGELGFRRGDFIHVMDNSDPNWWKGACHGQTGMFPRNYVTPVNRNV
Chain of EPHB1 (P54762 whole entry, looked up): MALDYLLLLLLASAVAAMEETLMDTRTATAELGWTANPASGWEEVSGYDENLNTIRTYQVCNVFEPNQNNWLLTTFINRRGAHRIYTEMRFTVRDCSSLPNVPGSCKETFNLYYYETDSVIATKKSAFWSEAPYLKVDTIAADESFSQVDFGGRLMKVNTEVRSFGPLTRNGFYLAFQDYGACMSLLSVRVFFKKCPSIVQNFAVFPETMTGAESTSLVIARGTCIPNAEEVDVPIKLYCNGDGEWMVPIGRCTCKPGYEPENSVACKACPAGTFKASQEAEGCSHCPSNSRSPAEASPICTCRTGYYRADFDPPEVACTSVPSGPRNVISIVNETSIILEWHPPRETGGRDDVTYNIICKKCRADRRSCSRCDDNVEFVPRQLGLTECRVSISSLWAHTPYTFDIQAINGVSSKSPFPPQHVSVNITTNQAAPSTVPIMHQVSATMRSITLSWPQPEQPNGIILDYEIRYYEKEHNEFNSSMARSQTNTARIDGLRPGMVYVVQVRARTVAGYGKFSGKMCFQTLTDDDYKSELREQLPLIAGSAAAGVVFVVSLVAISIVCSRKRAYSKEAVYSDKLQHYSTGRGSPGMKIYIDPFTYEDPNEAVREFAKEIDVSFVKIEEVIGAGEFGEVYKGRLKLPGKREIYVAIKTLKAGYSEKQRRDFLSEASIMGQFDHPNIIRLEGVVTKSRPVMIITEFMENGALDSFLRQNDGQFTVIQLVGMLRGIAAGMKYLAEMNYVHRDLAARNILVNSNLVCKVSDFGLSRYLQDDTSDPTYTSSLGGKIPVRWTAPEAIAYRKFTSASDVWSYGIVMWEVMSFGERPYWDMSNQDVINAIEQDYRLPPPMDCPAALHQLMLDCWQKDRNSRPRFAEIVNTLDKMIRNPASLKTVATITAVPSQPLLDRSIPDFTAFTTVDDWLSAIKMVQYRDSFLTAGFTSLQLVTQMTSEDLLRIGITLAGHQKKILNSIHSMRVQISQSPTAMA
Chain of Jak2 (O60674 whole entry, looked up): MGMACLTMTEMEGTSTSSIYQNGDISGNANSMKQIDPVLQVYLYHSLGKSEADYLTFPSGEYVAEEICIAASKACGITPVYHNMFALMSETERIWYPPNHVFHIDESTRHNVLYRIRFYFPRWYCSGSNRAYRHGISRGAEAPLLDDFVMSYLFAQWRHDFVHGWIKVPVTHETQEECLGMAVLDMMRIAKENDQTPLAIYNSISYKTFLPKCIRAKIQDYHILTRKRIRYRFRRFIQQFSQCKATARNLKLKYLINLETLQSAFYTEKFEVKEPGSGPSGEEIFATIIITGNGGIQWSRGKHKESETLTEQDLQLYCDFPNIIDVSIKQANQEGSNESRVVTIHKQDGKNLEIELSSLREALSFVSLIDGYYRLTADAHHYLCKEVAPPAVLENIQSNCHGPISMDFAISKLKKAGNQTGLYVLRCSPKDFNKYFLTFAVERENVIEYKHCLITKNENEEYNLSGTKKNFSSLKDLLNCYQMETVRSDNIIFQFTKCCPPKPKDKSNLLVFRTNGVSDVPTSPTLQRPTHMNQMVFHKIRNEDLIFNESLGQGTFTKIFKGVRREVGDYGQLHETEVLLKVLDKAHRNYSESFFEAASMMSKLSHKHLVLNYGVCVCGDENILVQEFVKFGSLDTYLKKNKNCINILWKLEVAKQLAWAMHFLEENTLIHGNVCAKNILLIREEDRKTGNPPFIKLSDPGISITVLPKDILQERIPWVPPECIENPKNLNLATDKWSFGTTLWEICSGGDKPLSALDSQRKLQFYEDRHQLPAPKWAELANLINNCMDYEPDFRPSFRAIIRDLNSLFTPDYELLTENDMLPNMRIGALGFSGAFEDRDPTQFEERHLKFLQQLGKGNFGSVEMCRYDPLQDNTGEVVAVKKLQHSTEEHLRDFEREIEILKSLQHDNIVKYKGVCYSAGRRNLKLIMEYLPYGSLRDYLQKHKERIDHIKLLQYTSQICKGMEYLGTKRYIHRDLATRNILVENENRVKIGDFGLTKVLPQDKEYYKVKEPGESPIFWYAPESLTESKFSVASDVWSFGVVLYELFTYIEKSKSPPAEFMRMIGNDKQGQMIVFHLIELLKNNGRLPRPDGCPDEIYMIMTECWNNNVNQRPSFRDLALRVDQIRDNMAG

PLRAFYLIARV [HLCS_Y635_D634Y_YF]: the SH2 binding enrichment turned out to be 0.6 with c-Src SH2, 0.738 with SHP2-C SH2 and 0.996 with Grb2 SH2. Also, the phosphorylation enrichment worked out at 0.866 with Hck; 1.02 with EPHB1; 5.18 in the data set with Jak2; 1.26 in the data set with Fer (mouse); 1.84 with FGFR3; 1.07 with FGFR1. For the same sequence, the phosphorylation enrichment in the data set on c-Src was determined as 2.27; in the data set on c-Abl (mouse), 3.67; with Fes, 4.68; with MERTK, 1.33; with Fyn, 0.92; in the data set with EPHB2, 1.46. The phosphorylation enrichment with AncSZ came out at 3.67.

As for ARLDEYIAIAK [RCOR3_Y46_K42R], the results for the SH2 binding enrichment in the data set with c-Src SH2, with SHP2-C SH2 and with Grb2 SH2 were 0.505, 0.702 and 0.664, respectively. The phosphorylation enrichment with Hck turned out to be 0.447; with EPHB1 it was 0.442; with Jak2 it was 0.683; in the data set with Fer (mouse) it was 0.428; with FGFR3, 0.562; with FGFR1, 0.446. For the same sequence, the phosphorylation enrichment in the data set on c-Src came out at 0.458; with c-Abl (mouse) it was 0.516; in the data set with Fes, 0.621; in the data set with MERTK, 0.598; with Fyn, 0.391; in the data set with EPHB2, 0.51. The phosphorylation enrichment in the data set on AncSZ was determined as 0.649.

Consider GKTQQYDCKWY [BCR_Y751], for which the SH2 binding enrichment with c-Src SH2 came out at 0.758; in the data set with SHP2-C SH2, 0.601; in the data set with Grb2 SH2, 0.805. In addition, the phosphorylation enrichment was 0.554 with Hck; 0.554 with EPHB1; 1.05 in the data set with Jak2; 0.432 in the data set on Fer (mouse); 0.598 with FGFR3; 0.464 with FGFR1. Also, the phosphorylation enrichment with c-Src was determined as 0.55; in the data set on c-Abl (mouse) it was 0.769; in the data set with Fes, 1.05; with MERTK, 0.515; with Fyn, 0.441; in the data set with EPHB2 it was 0.532. Also, the phosphorylation enrichment with AncSZ was 0.864.

In the case of LSTPEYGPKLK [TBC1D14_Y46_A43T], the SH2 binding enrichment with c-Src SH2 amounted to 0.445; with SHP2-C SH2, 0.733; with Grb2 SH2 it was 0.796. Also, the phosphorylation enrichment in the data set with Hck stood at 0.417; with EPHB1 it was 0.47; in the data set with Jak2, 0.569; in the data set with Fer (mouse), 0.461; in the data set with FGFR3 it was 0.506; with FGFR1 it was 0.465. In addition, the phosphorylation enrichment in the data set on c-Src turned out to be 0.494; in the data set with c-Abl (mouse), 0.57; in the data set with Fes it was 0.574; in the data set with MERTK, 0.532; with Fyn it was 0.527; in the data set with EPHB2, 0.496. The phosphorylation enrichment in the data set on AncSZ came out at 0.673.

For the sequence PDGREYIYVDP [PDGFRA_Y572_H570R], the values for the SH2 binding enrichment with c-Src SH2, with SHP2-C SH2 and with Grb2 SH2 were 0.385, 0.781 and 0.605, respectively. The phosphorylation enrichment came out at 1.28 with Hck; 3.98 with EPHB1; 1.88 in the data set with Jak2; 0.983 in the data set on Fer (mouse); 5.18 with FGFR3; 8.67 with FGFR1. Besides, the phosphorylation enrichment in the data set on c-Src amounted to 1.77; in the data set with c-Abl (mouse), 1.93; with Fes it was 1.35; with MERTK, 1.42; with Fyn, 1.07; in the data set with EPHB2, 2.74. Also, the phosphorylation enrichment in the data set on AncSZ was 3.36.

On to FVSAAYVKKLD [SPTAN1_Y1020_P1017S], for which the SH2 binding enrichment with c-Src SH2 was determined as 0.379; with SHP2-C SH2, 0.804; with Grb2 SH2, 0.885. Further, the phosphorylation enrichment was determined as 0.374 with Hck; 0.414 with EPHB1; 0.403 with Jak2; 0.365 in the data set on Fer (mouse); 0.455 with FGFR3; 0.421 in the data set with FGFR1. The phosphorylation enrichment in the data set on c-Src came out at 0.382; in the data set on c-Abl (mouse), 0.511; with Fes, 0.65; in the data set with MERTK it was 0.337; with Fyn it was 0.365; with EPHB2, 0.618. In the data set with AncSZ, the phosphorylation enrichment is 0.663.

Take EEALHYLTRVE [SET_Y119]: the SH2 binding enrichment with c-Src SH2 was 0.532; with SHP2-C SH2, 1.16; with Grb2 SH2 it was 0.758. In addition, the phosphorylation enrichment with Hck was found to be 0.586; in the data set with EPHB1 it was 0.73; with Jak2, 1; in the data set on Fer (mouse), 0.492; in the data set with FGFR3 it was 0.724; with FGFR1, 0.47. In addition, the phosphorylation enrichment in the data set with c-Src was found to be 0.462; in the data set on c-Abl (mouse) it was 0.748; in the data set with Fes, 1.13; in the data set with MERTK, 0.469; with Fyn it was 0.466; with EPHB2, 0.536. Further, in the data set with AncSZ, the phosphorylation enrichment came to 1.02.

With PIPAAYNRYDQ [CDC73_Y290], the SH2 binding enrichment in the data set with c-Src SH2 came to 0.5; with SHP2-C SH2, 0.559; in the data set with Grb2 SH2, 0.75. Besides, the phosphorylation enrichment with Hck was found to be 0.507; with EPHB1, 0.433; with Jak2 it was 0.416; in the data set on Fer (mouse), 0.593; with FGFR3 it was 0.621; in the data set with FGFR1, 0.541. In addition, the phosphorylation enrichment was 0.342 in the data set with c-Src; 0.572 in the data set on c-Abl (mouse); 0.751 with Fes; 0.263 with MERTK; 0.736 with Fyn; 0.571 in the data set with EPHB2. Moreover, in the data set with AncSZ, the phosphorylation enrichment was 0.71.

Source of the values: the supplement of paper PMC10065799, “High-throughput profiling of sequence recognition by tyrosine kinases and SH2 domains using bacterial peptide display” (eLife, 2023).
